B7: FliF (natural protein)
chain: MSATASTATQPKPLEWLNRLRANPRIPLIVAGSAAVAIVVAMVLWAKTPDYRTLFSNLSDQDGGAIVAQLTQMNIPYRFANGSGAIEVPADKVHELRLRLAQQGLPKGGAVGFELLDQEKFGISQFSEQVNYQRALEGELARTIETLGPVKSARVHLAMPKPSLFVREQKSPSASVTVTLEPGRALDEGQISAVVHLVSSAVAGLPPGNVTLVDQSGHLLTQSNTSGRDLNDAQLKFANDVESRIQRRIEAILSPIVGNGNVHAQVTAQLDFANKEQTEEHYSPNGDASKATLRSRQLNISEQVGAGYPGGVPGALSNQPAPPNEAPIATPPTNQQNAQNTPQTSTSTNSNSAGPRSTQRNETSNYEVDRTIRHTKMNVGDIERLSVAVVVNYKTLADGKPLPLTADQMKQIEDLTREAMGFSDKRGDTLNVVNSPFSAVDNTGGELPFWQQQSFIDQLLAAGRWLLVLVVAWILWRKAVRPQLTRRVEEAKAAQEQAQVRQETEEAVEVRLSKDEQLQQRRANQRLGAEVMSQRIREMSDNDPRVVALVIRQWMSNDHE
notes: FliF, Salmonella enterica, transmembrane protein that forms the MS ring; also called MS ring; source: Salmonella SJW1368, pTrc99A-based plasmid, in DDM-solubilised membranes

What was measured:
[1] = target: the molecule itself; assay: crystal structure; Tm-FliPP, 2.4 Å, SAD phasing with a Se-Met derivative; 2 tetramers in the asymmetric unit
[2] = target: the molecule itself; assay: SEC; Ni-purified His-FliP or FliO/His-FliP complexes (wild type and mutants) on Superdex 200 10/300; 20 mM Tris-HCl pH 8.0, 300 mM NaCl, 2 mM EDTA, 5% glycerol, 0.1% DDM
[3] = target: T1, His-St-FliP (Salmonella FliP with a hexahistidine tag inserted between Gln-22 and Leu-23) (Salmonella enterica, UniProt P54700 22-245); assay: pull-down; copurification from Salmonella SJW1368 co-expressing His-FliP with other export gate proteins; membranes solubilised with 1% DDM; Ni affinity, then anti-FLAG M2 affinity (eluted with FLAG peptide), then SEC on Superdex 200 10/300; SDS-PAGE with CBB; details: partners not purified
T1 construct: FliP, Salmonella enterica, 25-kDa transmembrane protein; mature form studied; the signal peptide (Met-1 to Gln-22) is cleaved during membrane insertion; tag LHHHHHH inserted between Gln-22 and Leu-23; Hexameric ring in SEC peak 2; also called His-FliP; FliP6 ring; source: Salmonella SJW1368, membranes solubilised with 1% DDM or 1% LMNG; purified (Ni-NTA, SEC); not shown: His6 (LHHHHHH), internal …
T1 sequence: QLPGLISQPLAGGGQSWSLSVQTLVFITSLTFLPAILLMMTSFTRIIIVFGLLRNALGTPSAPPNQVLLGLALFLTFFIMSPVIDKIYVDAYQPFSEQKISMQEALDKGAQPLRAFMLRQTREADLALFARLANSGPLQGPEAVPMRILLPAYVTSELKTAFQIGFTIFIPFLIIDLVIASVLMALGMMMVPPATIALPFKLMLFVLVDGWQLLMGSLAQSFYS

FliF = target: B7; assay: pull-down; Ni affinity copurification with FliG-His from SJW1368 co-expressing FlhA, FlhB, FliF, FliG-His, FliO, FliP, HA-FliQ and FliR-FLAG; membranes solubilised with 1% DDM; details: partners not purified
FlhA = target: T2, FlhA (Salmonella enterica, UniProt P40729 1-692); assay: SEC; Ni-purified FlhA/FliF/FliG-His complex on Superdex 200 10/300 (DDM); main peak examined by negative-stain EM; details: both partners purified
T2 construct: FlhA, Salmonella enterica, transmembrane export gate protein; source: Salmonella SJW1368, pTrc99A-based plasmid, in DDM- or LMNG-solubilised membranes; co-purified
T2 sequence: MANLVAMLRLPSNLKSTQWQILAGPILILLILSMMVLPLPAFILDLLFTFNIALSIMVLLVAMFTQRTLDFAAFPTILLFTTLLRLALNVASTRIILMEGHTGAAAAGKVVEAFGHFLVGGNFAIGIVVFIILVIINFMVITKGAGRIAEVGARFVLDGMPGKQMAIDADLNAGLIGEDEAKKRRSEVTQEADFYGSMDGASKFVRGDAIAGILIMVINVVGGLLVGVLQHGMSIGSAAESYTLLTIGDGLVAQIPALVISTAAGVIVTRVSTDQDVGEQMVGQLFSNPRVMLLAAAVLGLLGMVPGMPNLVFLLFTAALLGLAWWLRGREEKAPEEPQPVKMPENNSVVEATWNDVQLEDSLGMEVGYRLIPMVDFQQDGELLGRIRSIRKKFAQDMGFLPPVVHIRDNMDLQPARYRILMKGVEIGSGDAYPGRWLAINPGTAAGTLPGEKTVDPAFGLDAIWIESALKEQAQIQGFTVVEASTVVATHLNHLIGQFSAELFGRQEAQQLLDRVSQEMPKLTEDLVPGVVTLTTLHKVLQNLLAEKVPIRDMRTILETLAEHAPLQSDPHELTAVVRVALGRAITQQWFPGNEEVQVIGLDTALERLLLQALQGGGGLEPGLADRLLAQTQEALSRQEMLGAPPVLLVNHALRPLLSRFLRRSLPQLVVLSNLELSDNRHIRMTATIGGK

[4] = target: the molecule itself; assay: negative-stain electron microscopy with 2D class averaging; purified SEC peak fractions, 1.0% uranyl acetate, 100 kV; autocorrelation analysis for the rotational symmetry of the FliP ring

B1: Tm-FliPP (periplasmic domain of FliP of Thermotoga maritima) (domain or fragment)
chain: YNNAITPYLNKETGYQEMFQRVNTRIREFMINELKNHHNEDNVFMLAKNSGIEIAKIEEAPNAVLIPAFVLGELEVAFK
notes: FliP of Thermotoga maritima (printed 'T. maritia'), periplasmic domain between TM-2 and TM-3; the atomic model holds Thr-122 to Lys-188; the N-terminal 13 residues of the construct are invisible; also called FliPP of T. maritia; Tm-FliPP tetramer; source: expression and purification described previously [37]
With B1 the “stoichiometry N” value [1] was 4.

B2: His-FliP(F137A) (natural protein)
chain: QLPGLISQPLAGGGQSWSLSVQTLVFITSLTFLPAILLMMTSFTRIIIVFGLLRNALGTPSAPPNQVLLGLALFLTFFIMSPVIDKIYVDAYQPFSEQKISMQEALDKGAQPLRAAMLRQTREADLALFARLANSGPLQGPEAVPMRILLPAYVTSELKTAFQIGFTIFIPFLIIDLVIASVLMALGMMMVPPATIALPFKLMLFVLVDGWQLLMGSLAQSFYS
notes: FliP, Salmonella enterica; mature form; signal peptide (Met-1 to Gln-22) cleaved; His tag inserted between Gln-22 and Leu-23; source: Salmonella SJW1368, co-expressed with FliO, DDM-solubilised membranes; purified (Ni-NTA, SEC); not shown: His6 (LHHHHHH), internal (after residue 22), kept
In the case of B2, the “stoichiometry N” value [2] is reported as 2.

B3: FliR-FLAG (natural protein)
chain: MIQVTSEQWLYWLHLYFWPLLRVLALISTAPILSERAIPKRVKLGLGIMITLVIAPSLPANDTPLFSIAALWLAMQQILIGIALGFTMQFAFAAVRTAGEFIGLQMGLSFATFVDPGSHLNMPVLARIMDMLAMLLFLTFNGHLWLISLLVDTFHTLPIGSNPVNSNAFMALARAGGLIFLNGLMLALPVITLLLTLNLALGLLNRMAPQLSIFVIGFPLTLTVGIMLMAALMPLIAPFCEHLFSEIFNLLADIVSEMPINNNP
notes: FliR, Salmonella enterica, transmembrane export gate protein; also called FLAG-FliR (as printed in the methods); source: Salmonella SJW1368, pTrc99A-based plasmid, in DDM- or LMNG-solubilised membranes; co-purified (Ni-NTA, anti-FLAG gel, SEC)
In the case of B3, the “stoichiometry N” value [3] is reported as ~2 copies of FliR per 6 copies of FliP.

B4: FlhB (natural protein)
chain: MAEESDDDKTEAPTPHRLEKAREEGQIPRSRELTSLLILLVGVCIIWFGGESLARQLAGMLSAGLHFDHRMVNDPNLILGQIILLIKAAMMALLPLIAGVVLVALISPVMLGGLIFSGKSLQPKFSKLNPLPGIKRMFSAQTGAELLKAVLKSTLVGCVTGFYLWHHWPQMMRLMAESPIVAMGNALDLVGLCALLVVLGVIPMVGFDVFFQIFSHLKKLRMSRQDIRDEFKESEGDPHVKGKIRQMQRAAAQRRMMEDVPKADVIVTNPTHYSVALQYDENKMSAPKVVAKGAGLIALRIREIGAEHRVPTLEAPPLARALYRHAEIGQQIPGQLYAAVAEVLAWVWQLKRWRLAGGQRPPQPENLPVPEALDFMNEKNTDG
notes: FlhB, Salmonella enterica, transmembrane export gate protein; its C-terminal cytoplasmic domain undergoes autocleavage between Asp-269 and Pro270 as printed; source: Salmonella SJW1368, pTrc99A-based plasmid, in DDM- or LMNG-solubilised membranes; co-purified
With B4 the “stoichiometry N” value [3] was ~2 copies of FlhB per 6 copies of FliP.

B5: FliG-His (natural protein)
chain: MSNLSGTDKSVILLMTIGEDRAAEVFKHLSTREVQALSTAMANVRQISNKQLTDVLSEFEQEAEQFAALNINANEYLRSVLVKALGEERASSLLEDILETRDTTSGIETLNFMEPQSAADLIRDEHPQIIATILVHLKRSQAADILALFDERLRHDVMLRIATFGGVQPAALAELTEVLNGLLDGQNLKRSKMGGVRTAAEIINLMKTQQEEAVITAVREFDGELAQKIIDEMFLFENLVDVDDRSIQRLLQEVDSESLLIALKGAEPPLREKFLRNMSQRAADILRDDLANRGPVRLSQVENEQKAILLIVRRLAETGEMVIGSGEDTYV
notes: FliG, Salmonella enterica, C ring protein; also called His-FliG; source: Salmonella SJW1368, pTrc99A-based plasmid, in DDM-solubilised membranes; not shown: His tag, C-terminal, kept
B5: binds (FliF).

B6: His-FliP(F150A) (natural protein)
chain: QLPGLISQPLAGGGQSWSLSVQTLVFITSLTFLPAILLMMTSFTRIIIVFGLLRNALGTPSAPPNQVLLGLALFLTFFIMSPVIDKIYVDAYQPFSEQKISMQEALDKGAQPLRAFMLRQTREADLALAARLANSGPLQGPEAVPMRILLPAYVTSELKTAFQIGFTIFIPFLIIDLVIASVLMALGMMMVPPATIALPFKLMLFVLVDGWQLLMGSLAQSFYS
notes: FliP, Salmonella enterica; mature form; signal peptide (Met-1 to Gln-22) cleaved; His tag inserted between Gln-22 and Leu-23; also called His-FliP(F1507A) [sic]; source: Salmonella SJW1368, co-expressed with FliO, DDM-solubilised membranes; purified (Ni-NTA, SEC); not shown: His6 (LHHHHHH), internal (after residue 22), kept
In the case of B6, the “stoichiometry N” value [2] is reported as 2.

B7: binds (FlhA); binds [4].

B8: His-FliP(E178A) (natural protein)
chain: QLPGLISQPLAGGGQSWSLSVQTLVFITSLTFLPAILLMMTSFTRIIIVFGLLRNALGTPSAPPNQVLLGLALFLTFFIMSPVIDKIYVDAYQPFSEQKISMQEALDKGAQPLRAFMLRQTREADLALFARLANSGPLQGPEAVPMRILLPAYVTSALKTAFQIGFTIFIPFLIIDLVIASVLMALGMMMVPPATIALPFKLMLFVLVDGWQLLMGSLAQSFYS
notes: as for B2
In the case of B8, the “stoichiometry N” value [2] is reported as 2.
